Test results: patent US20230080534A1, “SEMG2 ANTIBODY AND USE THEREOF” (SHANGHAI BIOTROY BIOTECHNIQUE CO., LTD., priority 2020, published 2023)

Legend:
[1] = molecular target: T1, binding between SEMG2 and CD27 (Homo sapiens, UniProt Q02383); assay: Antibody blocking ELISA of SEMG2 binding to CD27-Fc; details: antibody 10 μg/mL
T1 sequence (Q02383 24-582): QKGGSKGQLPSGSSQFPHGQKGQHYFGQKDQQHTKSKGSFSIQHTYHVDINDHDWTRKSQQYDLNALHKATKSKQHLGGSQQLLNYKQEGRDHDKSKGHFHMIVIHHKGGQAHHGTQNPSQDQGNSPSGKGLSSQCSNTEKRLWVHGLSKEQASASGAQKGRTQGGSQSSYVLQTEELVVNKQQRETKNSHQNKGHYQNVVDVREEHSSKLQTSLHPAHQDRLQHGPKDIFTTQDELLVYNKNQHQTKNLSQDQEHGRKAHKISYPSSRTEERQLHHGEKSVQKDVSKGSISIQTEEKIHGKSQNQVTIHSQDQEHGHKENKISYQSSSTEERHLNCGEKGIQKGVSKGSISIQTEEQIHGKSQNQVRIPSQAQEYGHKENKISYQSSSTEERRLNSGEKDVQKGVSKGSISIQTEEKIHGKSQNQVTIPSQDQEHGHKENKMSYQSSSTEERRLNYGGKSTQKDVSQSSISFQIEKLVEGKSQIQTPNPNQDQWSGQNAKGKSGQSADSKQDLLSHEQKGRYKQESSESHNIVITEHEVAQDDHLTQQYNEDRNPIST
Text: Because SEMG2 (497-509) sequence fragment is the key epitope of SEMG2 binding to CD27, and has a relatively short sequence, so SEMG2 (497-509) was used as an immunogen to prepare antibodies, which is theoretically easier to obtain functional antibody molecules with the function of blocking the binding between SEMG2 and CD27 than using full-length SEMG2 to prepare antibodies. For direct comparison, the differences in effective concentration of producing antibody by the two methods were verified using ELISA in the examples. Antibodies produced with SEMG2 (497-509) as immunogen and antibodies produced with full-length SEMG2 were added into the enzyme-linked immunosorbent assay (ELISA) reaction system at different concentrations (10^-2, 10^-1, 10^0, 10^1, 10^2, 10^3, 10^4 μg/mL), and the ELISA binding values were measured. The specific steps of enzyme-linked immunosorbent assay are as follows: (1) Dissolve SEMG2 protein antigen with 50 mM carbonate coating buffer (pH 9.6) to make the antigen concentration 10 μg/mL, and add into 96-well ELISA plate (purchased from Corning) at 100 μL/well, place at 4° C. overnight. (2) After discarding the coating solution on the next day, wash with PBST for three times, add 150 μL of 1% BSA to each well, and block for 2 hours at 37° C. […] (4) After washing for 5 times with PBST, add 100 of diluted HRP-labeled anti-human Fe secondary antibody, and incubate at 37° C. for 1 hour. (5) After washing with PBST for 5 times, 20 min after developing with chromogenic agent, the A450 absorption value was read using the microplate reader.
The SEMG2 (497-509) sequence was used to synthesize a polypeptide and coupled to a VLP carrier for immunization; HEK293 cells were used to express the full-length SEMG2 protein, and the purity was tested to reach 92%, and the binding activity of SEMG2 protein to CD27 was verified by ELISA. The protein and polypeptide antigens were used to immunize 10 mice respectively, and multiple immunizations were performed to enhance the effect: (1) The first immunization, 50 μg/mice of antigen, multiple subcutaneous injections together with Freund's complete adjuvant, with an interval of 3 weeks; (2) the second immunization; the same dosage and route as above, with incomplete Freund's adjuvant, and with an interval of 3 weeks; (3) the third immunization, the same dosage as above, without adjuvant, intraperitoneal injection with an interval of 3 weeks; (4) the booster immunization, the dose is 50 μg, intraperitoneal injection. 3 days after the last injection, blood was collected to measure its titer and the immune effect, and mice with higher titers were selected for hybridoma fusion screening. After subcloning, the binding of the monoclonal antibodies to the target antigens was detected by ELISA, and the function of different monoclonal antibodies in blocking the binding between SEMG2 and CD27 was measured by ELISA.
First, SEMG2(497-509) epitope-specific antibodies (for example, MM02, MM05) were compared with other epitope-specific antibodies (for example, HPA042767) for their function in blocking binding between SEMG2 and CD27 at different concentration ranges. […] The blocking function of different antibodies (irrelative mouse IgG, MM02, MM05, HPA042767) on binding between SEMG2 and CD27 was analyzed by the ELISA experiment as described in Example 11.
Further, the effects of different antibodies on the binding between SEMG2 and CD27 were compared under the condition of the same antibody concentration. In the ELISA, the same concentration (10 μg/mL) of antibody was used, and the strength of the binding between SEMG2 and CD27 was measured. […]

[2] = test system: A375 human melanoma cells; assay: Tumor cell killing by activated PBMC, caspase-3/7 apoptosis; type: cell-based; details: A375, SEMG2-positive, co-culture with activated PBMC 10:1
Protocol: (§1) To test the above hypothesis, the effects of different epitope-specific antibodies on tumor cell killing by activated PBMC were compared. Specifically, A375 human melanoma and LOVO human colorectal cancer cells highly expressing SEMG2 were seeded in 96-well plate. Human peripheral blood mononuclear cells (PBMC; #70025, Stem Cell) were activated with 100 ng/mL of CD3 antibody, 100 ng/mL, of CD28 antibody, and 1.0 ng/mL of IL2 (#317303; #302913; #589102, BioLegend), respectively, and co-cultured with the above tumor cells at a ratio of 10:1 in presence of fluorescent caspase-3/7 substrate (#4440, Essen Bioscience). After 1.0 hours, cells were observed under fluorescence microscope.
(§2) To verify the above hypothesis, tumor cells with high SEMG2 expression (A375, LOVO) and SEMG2-negative tumor cells (DLD1, NCM460 and NCI-H1975) were selected. Different antibodies (irrelevant mouse IgG antibodies, MM02 or MM05 antibodies) were added during the PBMC killing experiments for the tumor cells.
(§3) To verify the effect of the human antibodies on the function of activated PBMC on tumor cell killing, A375 and LOVO cells were co-cultured with activated PBMC, and H88-93, H88-96, or H88-67 antibody was added at the same time, and the apoptosis ratio of tumor cells were detected.

[3] = test system: LOVO human colorectal cancer cells; assay: as above; type: cell-based; details: SEMG2-positive, co-culture with activated PBMC 10:1
Protocol: as §1, §2, §3

SEMG2(497-509) fragment = molecular target: T2, SEMG2(497-509) fragment (Homo sapiens, UniProt Q02383); assay: ELISA binding of antibodies to SEMG2(497-509) epitope
T2 construct: SEMG2(497-509) fragment and SEMG2(563-574) fragment were immobilized on the ELISA plate; made in house; host or cells: chemical synthesis
Protocol: Specifically, SEMG2 full-length protein (1-582), SEMG2(354-403) fragment, SEMG2(442-453) fragment, SEMG2(497-509) fragment and SEMG2(563-574) fragment were immobilized on the ELISA plate, and the same concentration of antibodies (MM02, MM05, MM07, MM08, MM13, MM14, HPA042767 and HPA042835) were added. Anti-mouse or anti-rabbit secondary antibodies were then used to detect the corresponding bound antibodies. MM02, MM05, MM07, MM08, MM13, and MM14 all bound to SEMG2(497509) epitope, HPA042767 bound to SEMG2 (354-403) epitope, and HPA042835 bound to […], while none of the antibodies bound to SEMG2 (442-453) control fragment.
Specifically, the preparation of polypeptide antigens and the screening of human natural antibody library were firstly performed. The SEMG2(497-509) polypeptide was synthesized and coupled to BSA and KLH, respectively, and screened in a fully human phage display antibody library. ELISA was used to select clones that bind to antigenic epitopes for preliminary screening. Different unique sequences were obtained after sequencing single colonies, sorted according to affinity sorting, and full-length antibodies were constructed from antigen-binding fragments (Fab) with relatively high affinity. The binding ability and blocking function tests were performed after purification, that is, the effect of the antibody on binding between SEMG2 and CD27 was determined by the ELISA experiment.

B1: MM07: mouse monoclonal antibody against SEMG2(497-509), mIgG2b kappa, VH SEQ ID NO:37, VL SEQ ID NO:44 (antibody, V domains shown)
VH: MDWLWTLLFLMAAAQSIQAQIQLVQSGPELKKPGETVRISCKASGYTLTTAGMQWVQKIPGKGLKWIGWINTHSGVAEFAEDFKGRFAFSLETSANTAYLQIRNLKNEDTATYFCARLGLLGYWGQGTTLTVSS
VL: MVSSAQFLVFLLFWIPASRGDILLTQSPAILSVSPGERVSFSCRASQSIGTTIHWYQQRTNGSPRLLIKYASESISGIPSRFSGSGSGTDFTLSINSVESEDIADYYCQQSNSWPWTFGGGTKLEIKRA
modifications: UNSURE (1)..(134) VH; UNSURE (1)..(129) VL
B1 was tested, and the “effect on the binding between SEMG2 and CD27” value (“effect” for short) [1] was “significantly reduced the binding”, the “apoptosis tumor cell ratio / killing by activated PBMC” value (“apoptosis tumor cell ratio / killing” below) [2] was “significantly increased” and the “apoptosis tumor cell ratio / killing” value [3] was “significantly increased”. The “binding to SEMG2(497-509) epitope” value (SEMG2(497-509) fragment) was “bound”.

B2: MM08: mouse monoclonal antibody against SEMG2(497-509), mIgG1 kappa, VH SEQ ID NO:38, VL SEQ ID NO:45 (antibody, V domains shown)
VH: QVQLQQPGAELVRPGASVKLSCKSSDYTFTRYWMNWVKQRPGQGLEWIGMIDPSDSETHHNQMFKDKATLTVDKSSSTAYMQLSSLTSEDSAVYFCARYLGGKEGSFDYWGQGTTLTVSS
VL: DIVLTQSPSSLAVSAGERVTMSCKSSQSLFNSRTRKNYLAWYQQKPGQSPKLLLYWASTRESGVPDRFTGSGSGTDFTLTISSVKTEDLAVYYCKQSYELPWTFGGGTKLEMKRA
modifications: UNSURE (1)..(120) VH; UNSURE (1)..(115) VL
With B2 the “effect” value [1] was “significantly reduced the binding”, the “apoptosis tumor cell ratio / killing” value [2] was “significantly increased” and the “apoptosis tumor cell ratio / killing” value [3] was “significantly increased”. For the same molecule, the “binding to SEMG2(497-509) epitope” value (SEMG2(497-509) fragment) was “bound”.

B3: MM14: mouse monoclonal antibody against SEMG2(497-509), mIgG2b kappa, VH SEQ ID NO:40, VL SEQ ID NO:47 (antibody, V domains shown)
VH: QVQLKESGPGLVAPSQSLSITCTVSGFSLTSYAVSWVRQPPGKGLEWLGIIWGDGSTNYHSALISRLSISKDNSKSQVFLKLNSLQTDDTATYYCAKQERFSDGYYDGFAYWGQGTLVTVSA
VL: QIVLTQSPAIMSASPGEKVTITCSASSSVSYMHWFQQKPGTSPKLWIYSTSNLASGVPARFSGSGSGTSYSLTISRMEAEDAATYYCQQRSSYPFTFGSGTKLEIKRA
modifications: UNSURE (1)..(122) VH; UNSURE (1)..(108) VL
For B3, the “effect” value [1] was “significantly reduced the binding”, the “apoptosis tumor cell ratio / killing” value [2] was “significantly increased” and the “apoptosis tumor cell ratio / killing” value [3] was “significantly increased”. For the same molecule, the “binding to SEMG2(497-509) epitope” value (SEMG2(497-509) fragment) was “bound”.

B4: H88-96: fully human antibody from phage library against SEMG2(497-509), VH SEQ ID NO:54, VL SEQ ID NO:57 (antibody, V domains shown)
VH: QVQLLESGGGLVQPGGSLRLSCSASGFTFSSYAMHWVRQAPGKGLEYVSAISSNGGSTYYADSVKGRFTISRDNSKNTLYLQMSSLRAEDTAVYYCVIEGGSTTGTTSGAFDIWGQGTMVTVSS
VL: DIQMIQSPPSVSASVGDTVTIACRANQGIDSWLAWYQQKPGRAPKLLIYSASRLQSGVPSRFSGGGSGTDFALTISNLQPEDFATYYCQQALSLPITFGQGTRLEIK
modifications: UNSURE (1)..(124) VH; UNSURE (1)..(107) VL
With B4 the “effect” value [1] was “inhibited the binding”, the “apoptosis tumor cell ratio / killing” value [2] was “significantly promote the killing” and the “apoptosis tumor cell ratio / killing” value [3] was “significantly promote the killing”. For the same molecule, the “binding to SEMG2(497-509) epitope” value (SEMG2(497-509) fragment) was “bind”.
